In the supplement of paper PMC11246515:
± gives the standard deviation of the averaged measurements.

Experiment: total protein half-life in vivo (active degradation + dilution); higher = more stable protein
[1] = E. coli NCM3722 delta-clpP delta-lon delta-hslV, growth: N-lim chemostat, doubling time 6 h
[2] = E. coli NCM3722 delta-clpP, growth: N-lim chemostat, doubling time 6 h
[3] = E. coli NCM3722 delta-hslV, growth: N-lim chemostat, doubling time 6 h
[4] = E. coli NCM3722 delta-lon, growth: N-lim chemostat, doubling time 6 h
[5] = E. coli NCM3722 delta-smpB, growth: N-lim chemostat, doubling time 6 h
[6] = wild type E. coli NCM3722, growth: C-lim chemostat, doubling time 3 h
[7] = wild type E. coli NCM3722, growth: C-lim chemostat, doubling time 6 h
[8] = wild type E. coli NCM3722, growth: C-lim chemostat, doubling time 12 h
[9] = wild type E. coli NCM3722, growth: N-lim chemostat, doubling time 6 h
[10] = wild type E. coli NCM3722, growth: P-lim chemostat, doubling time 12 h
[11] = wild type E. coli NCM3722, growth: N-lim chemostat, doubling time 12 h
[12] = wild type E. coli NCM3722, growth: P-lim chemostat, doubling time 6 h

Sequence	total protein half-life in vivo [1] [h]	total protein half-life in vivo [2] [h]	total protein half-life in vivo [3] [h]	total protein half-life in vivo [4] [h]	total protein half-life in vivo [5] [h]	total protein half-life in vivo [6] [h]	total protein half-life in vivo [7] [h]	total protein half-life in vivo [8] [h]	total protein half-life in vivo [9] [h]	total protein half-life in vivo [10] [h]	total protein half-life in vivo [11] [h]	total protein half-life in vivo [12] [h]
MKNVFKALTVLLTLFSLTGCGLKGPLYFPPADKNAPPPTKPVETQTQSTVPDKNDRATGDGPSQVNY [P0ADN6]	5.56 ± 0.35	5.27 ± 1.1	6.91 ± 1.1	6.29 ± 0.95	6.35 ± 0.59	2.95 ± 0.47	5.25 ± 1.2	> 16	6.03 ± 1.2	11.8 ± 0.15	–	–
MAGPVLYQDRAMKQITFAPRNHLLTNTNTWTPDSQWLVFDVRPSGASFTGETIERVNIHTGEVEVIYRASQGAHVGVVTVHPKSEKYVFIHGPENPDETWHYDFHHRRGVIVEGGKMSNLDAMDITAPYTPGVLRGGSHVHVFSPNGERVSFTYNDHVMHELDPALDLRNVGVAAPFGPVNVQKQHPREYSGSHWCVLVSKTTPTPQPGSDEINRAYEEGWVGNHALAFIGDTLSPKGEKVPELFIVELPQDEAGWKAAGDAPLSGTETTLPAPPRGVVQRRLTFTHHRAYPGLVNVPRHWVRCNPQGTQIAFLMRDDNGIVQLWLISPQGGEPRQLTHNKTDIQSAFNWHPSGEWLGFVLDNRIACAHAQSGEVEYLTEHHANSPSADAVVFSPDGQWLAWMEGGQLWITETDR	5.27 ± 0.21	4.73 ± 0.52	4.97 ± 0.094	4.8 ± 0.15	4.67 ± 0.09	3.17 ± 0.043	5.92 ± 0.44	11.1 ± 1.4	4.8 ± 0.56	11.3 ± 0.79	8.45 ± 0.1	6.23 ± 0.21
MNRTDELRTARIESLVTPAELALRYPVTPGVATHVTDSRRRIEKILNGEDKRLLVIIGPCSIHDLTAAMEYATRLQSLRNQYQSRLEIVMRTYFEKPRTVVGWKGLISDPDLNGSYRVNHGLELARKLLLQVNELGVPTATEFLDMVTGQFIADLISWGAIGARTTESQIHREMASALSCPVGFKNGTDGNTRIAVDAIRAARASHMFLSPDKNGQMTIYQTSGNPYGHIIMRGGKKPNYHADDIAAACDTLHEFDLPEHLVVDFSHGNCQKQHRRQLEVCEDICQQIRNGSTAIAGIMAESFLREGTQKIVGSQPLTYGQSITDPCLGWEDTERLVEKLASAVDTRF	5.25 ± 0.74	–	4.47 ± 0.041	4.88 ± 0.15	4.62 ± 0.51	3.089 ± 0.021	6.53 ± 1.7	10.3 ± 0.59	5.28 ± 0.75	11.8 ± 0.39	7.35 ± 0.6	6.03 ± 0.34
MEMTSAFTLNVRLDNIAVITIDVPGEKMNTLKAEFASQVRAIIKQLRENKELRGVVFVSAKPDNFIAGADINMIGNCKTAQEAEALARQGQQLMAEIHALPIQVIAAIHGACLGGGLELALACHGRVCTDDPKTVLGLPEVQLGLLPGSGGTQRLPRLIGVSTALEMILTGKQLRAKQALKLGLVDDVVPHSILLEAAVELAKKERPSSRPLPVRERILAGPLGRALLFKMVGKKTEHKTQGNYPATERILEVVETGLAQGTSSGYDAEARAFGELAMTPQSQALRSIFFASTDVKKDPGSDAPPAPLNSVGILGGGLMGGGIAYVTACKAGIPVRIKDINPQGINHALKYSWDQLEGKVRRRHLKASERDKQLALISGTTDYRGFAHRDLIIEAVFENLELKQQMVAEVEQNCAAHTIFASNTSSLPIGDIAAHATRPEQVIGLHFFSPVEKMPLVEIIPHAGTSAQTIATTVKLAKKQGKTPIVVRDKAGFYVNRILAPYINEAIRMLTQGERVEHIDAALVKFGFPVGPIQLLDEVGIDTGTKIIPVLEAAYGERFSAPANVVSSILNDDRKGRKNGRGFYLYGQKGRKSKKQVDPAIYPLIGTQGQGRISAPQVAERCVMLMLNEAVRCVDEQVIRSVRDGDIGAVFGIGFPPFLGGPFRYIDSLGAGEVVAIMQRLATQYGSRFTPCERLVEMGARGESFWKTTATDLQ	6.37 ± 0.25	6.427 ± 0.028	6.27 ± 0.24	6.41 ± 0.81	5.89 ± 0.35	2.94 ± 0.22	6.2 ± 0.16	12 ± 0.15	5.986 ± 0.037	12.3 ± 0.21	13.5 ± 2.2	6.1 ± 0.18
MRGKKRIGLLFLLIAVVVGGGGLLLAQKVLHKTSDTAFCLSCHSMSKPFEEYQGTVHFSNQKGIRAECADCHIPKSGMDYLFAKLKASKDIYHEFVSGKIDSDDKFEAHRQEMAETVWKELKATDSATCRSCHSFDAMDIASQSESAQKMHNKAQKDSETCIDCHKGIAHFPPEIKMDDNAAHELESQAATSVTNGAHIYPFKTSHIGELATVNPGTDLTVVDASGKQPIVLLQGYQMQGSENTLYLAAGQRLALATLSEEGIKALTVNGEWQADEYGNQWRQASLQGALTDPALADRKPLWQYAEKLDDTYCAGCHAPIAADHYTVNAWPSIAKGMGARTSMSENELDILTRYFQYNAKDITEKQ	–	–	–	–	–	2.33	4.09	8.13 ± 1.1	–	–	–	–
MTNLPKFSTALLHPRYWLTWLGIGVLWLVVQLPYPVIYRLGCGLGKLALRFMKRRAKIVHRNLELCFPEMSEQERRKMVVKNFESVGMGLMETGMAWFWPDRRIARWTEVIGMEHIRDVQAQKRGILLVGIHFLTLELGARQFGMQEPGIGVYRPNDNPLIDWLQTWGRLRSNKSMLDRKDLKGMIKALKKGEVVWYAPDHDYGPRSSVFVPLFAVEQAATTTGTWMLARMSGACLVPFVPRRKPDGKGYQLIMLPPECSPPLDDAETTAAWMNKVVEKCIMMAPEQYMWLHRRFKTRPEGVPSRY [P0ACV0]	6.85	5.84	6.63	–	5.81	–	7.93	–	–	–	–	–
MANGWTGNILRVNLTTGNITLEDSSKFKSFVGGMGFGYKIMYDEVPPGTKPFDEANKLVFATGPLTGSGAPCSSRVNITSLSTFTKGNLVVDAHMGGFFAAQMKFAGYDVIIIEGKAKSPVWLKIKDDKVSLEKADFLWGKGTRATTEEICRLTSPETCVAAIGQAGENLVPLSGMLNSRNHSGGAGTGAIMGSKNLKAIAVEGTKGVNIADRQEMKRLNDYMMTELIGANNNHVVPSTPQSWAEYSDPKSRWTARKGLFWGAAEGGPIETGEIPPGNQNTVGFRTYKSVFDLGPAAEKYTVKMSGCHSCPIRCMTQMNIPRVKEFGVPSTGGNTCVANFVHTTIFPNGPKDFEDKDDGRVIGNLVGLNLFDDYGLWCNYGQLHRDFTYCYSKGVFKRVLPAEEYAEIRWDQLEAGDVNFIKDFYYRLAHRVGELSHLADGSYAIAERWNLGEEYWGYAKNKLWSPFGYPVHHANEASAQVGSIVNCMFNRDCMTHTHINFIGSGLPLKLQREVAKELFGSEDAYDETKNYTPINDAKIKYAKWSLLRVCLHNAVTLCNWVWPMTVSPLKSRNYRGDLALEAKFFKAITGEEMTQEKLDLAAERIFTLHRAYTVKLMQTKDMRNEHDLICSWVFDKDPQIPVFTEGTDKMDRDDMHASLTMFYKEMGWDPQLGCPTRETLQRLGLEDIAADLAAHNLLPA	–	–	–	–	–	–	5.09	10.2 ± 4.6	–	–	7.93 ± 1.3	–
MDSIHGHEVLNMMIESGEQYTHASLEAAIKARFGEQARFHTCSAEGMTAGELVAFLAAKGKFIPSKDGFSTDQSKICRH	–	–	–	–	–	–	5.53	–	–	–	–	–
MELYLDTANVAEVERLARIFPIAGVTTNPSIIAASKESIWEVLPRLQKAIGDEGILFAQTMSRDAQGMVEEAKRLRDAIPGIVVKIPVTSEGLAAIKILKKEGITTLGTAVYSAAQGLLAALAGAKYVAPYVNRVDAQGGDGIRTVQELQTLLEMHAPESMVLAASFKTPRQALDCLLAGCESITLPLDVAQQMLNTPAVESAIEKFEHDWNAAFGTTHL	4.61 ± 1.5	–	–	3.3	2.84	2.91 ± 0.4	3.9 ± 0.8	9.6 ± 0.48	–	9.74 ± 0.17	–	5.37
MFRGATLVNLDSKGRLSVPTRYREQLLENAAGQMVCTIDIYHPCLLLYPLPEWEIIEQKLSRLSSMNPVERRVQRLLLGHASECQMDGAGRLLIAPVLRQHAGLTKEVMLVGQFNKFELWDETTWHQQVKEDIDAEQLATGDLSERLQDLSL	7.01 ± 0.38	6.48 ± 0.5	6.33 ± 0.068	6.98 ± 0.57	5.69 ± 0.38	3.22 ± 0.08	6.14 ± 0.43	12.19 ± 0.11	5.98 ± 0.57	14.04 ± 0.07	12.9 ± 0.16	6.8 ± 0.66
MIFSVDKVRADFPVLSREVNGLPLAYLDSAASAQKPSQVIDAEAEFYRHGYAAVHRGIHTLSAQATEKMENVRKRASLFINARSAEELVFVRGTTEGINLVANSWGNSNVRAGDNIIISQMEHHANIVPWQMLCARVGAELRVIPLNPDGTLQLETLPTLFDEKTRLLAITHVSNVLGTENPLAEMITLAHQHGAKVLVDGAQAVMHHPVDVQALDCDFYVFSGHKLYGPTGIGILYVKEALLQEMPPWEGGGSMIATVSLSEGTTWTKAPWRFEAGTPNTGGIIGLGAALEYVSALGLNNIAEYEQNLMHYALSQLESVPDLTLYGPQNRLGVIAFNLGKHHAYDVGSFLDNYGIAVRTGHHCAMPLMAYYNVPAMCRASLAMYNTHEEVDRLVTGLQRIHRLLG	3.84 ± 0.34	3.43 ± 0.26	3.39 ± 0.22	3.44 ± 0.05	3.41 ± 0.12	3.19 ± 0.48	–	8.7 ± 0.18	3.38 ± 0.26	11.3 ± 1.4	5.21 ± 0.034	6.38 ± 0.54
MSNFINIHVLISHSPSCLNRDDMNMQKDAIFGGKRRVRISSQSLKRAMRKSGYYAQNIGESSLRTIHLAQLRDVLRQKLGERFDQKIIDKTLALLSGKSVDEAEKISADAVTPWVVGEIAWFCEQVAKAEADNLDDKKLLKVLKEDIAAIRVNLQQGVDIALSGRMATSGMMTELGKVDGAMSIAHAITTHQVDSDIDWFTAVDDLQEQGSAHLGTQEFSSGVFYRYANINLAQLQENLGGASREQALEIATHVVHMLATEVPGAKQRTYAAFNPADMVMVNFSDMPLSMANAFEKAVKAKDGFLQPSIQAFNQYWDRVANGYGLNGAAAQFSLSDVDPITAQVKQMPTLEQLKSWVRNNGEA	6.17 ± 0.55	2.77	–	2.71	–	2.13	4.22	–	–	11.4 ± 1.2	–	5.28
MHLLVHPNGSKYWRLQYRYEGKQKMLALGVYPEITLADARVRRDEARKLLANGVDPGDKKKNDKVEQSKARTFKEVAIEWHGTNKKWSEDHAHRVLKSLEDNLFAALGERNIAELKTRDLLAPIKAVEMSGRLEVAARLQQRTTAIMRYAVQSGLIDYNPAQEMAGAVASCNRQHRPALELKRIPELLTKIDSYTGRPLTRWAIELTLLIFIRSSELRFARWSEIDFEASIWTIPPEREPIPGVKHSHRGSKMRTTHLVPLSTQALAILKQIKQFYGAHDLIFIGDHDSHKPMSENTVNSALRVMGYDTKVEVCGHGFRTMACSSLVESGLWSRDAVERQMSHMARNSVRAAYIHKAEHLEERRLMLQWWADFLDVNRERFISPFEYAKINNPLKQ	5.06 ± 0.41	4.91	–	–	2.44	–	5.13	13.3	–	–	–	4.82
MKNLIAELLFKLAQKEEESKELCAQVEALEIIVTAMLRNMAQNDQQRLIDQVEGALYEVKPDASIPDDDTELLRDYVKKLLKHPRQ [P0AAN9]	–	3.74 ± 0.97	4.38 ± 0.94	6.09 ± 1.4	4.195 ± 0.0044	3.54 ± 0.59	4.96 ± 0.47	7.25 ± 1.9	3.43 ± 0.67	10.1 ± 0.93	8.18 ± 5.6	4.02 ± 1.8
MSTPSARTGGSLDAWFKISQRGSTVRQEVVAGLTTFLAMVYSVIVVPGMLGKAGFPPAAVFVATCLVAGLGSIVMGLWANLPLAIGCAISLTAFTAFSLVLGQHISVPVALGAVFLMGVLFTVISATGIRSWILRNLPHGVAHGTGIGIGLFLLLIAANGVGLVIKNPLDGLPVALGDFATFPVIMSLVGLAVIIGLEKLKVPGGILLTIIGISIVGLIFDPNVHFSGVFAMPSLSDENGNSLIGSLDIMGALNPVVLPSVLALVMTAVFDATGTIRAVAGQANLLDKDGQIIDGGKALTTDSMSSVFSGLVGAAPAAVYIESAAGTAAGGKTGLTAITVGVLFLLILFLSPLSYLVPGYATAPALMYVGLLMLSNVAKIDFADFVDAMAGLVTAVFIVLTCNIVTGIMIGFATLVIGRLVSGEWRKLNIGTVVIAVALVTFYAGGWAI [P0AF52]	6.73 ± 0.3	6.71 ± 0.4	–	–	–	3.4 ± 0.27	6.122 ± 0.032	13.3 ± 3.4	6.45 ± 0.33	14.2 ± 1.6	12.2 ± 0.93	6.39 ± 0.3
